Source: patent US20100278838A1, “EPHA2 MONOCLONAL ANTIBODIES AND METHODS OF USE THEREOF” (MEDIMMUNE, LLC, priority 2002, published 2010)
“Also recorded” adds a separate entry of the source.

B1: EA2: EphA2 agonistic monoclonal antibody; ATCC deposit no. PTA-4380; co-pending application Ser. No. 10/436,783; VL SEQ ID NO:33, VH SEQ ID NO:37 (antibody, listed as Homo Sapiens, V domains shown)
VH: DVKLVESGGGLVKPGGSLKLSCAASGFTFSSYTMSWVRQTPEKRLEWVATISSGGTYTYYPDSVKGRFTISRDNAKNTLYLQMSSLKSEDTAMYYCTREAIFTYWGQGTLVTVSA
VL: DIKMTQSPSSMYASLGERVTITCKASQDINNYLSWFQQKPGKSPKTLIYRANRLVDGVPSRFSGSGSGQDYSLTISSLEYEDMGIYYCLKYDEFPYTFGGGTKLEIK
B2: Eph099B-208.261: EphA2 monoclonal antibody; hybridoma ATCC PTA-4573; VL SEQ ID NO:1, VH SEQ ID NO:5 (antibody, listed as Homo sapiens, V domains shown)
VH: QVQLQQPGAELVKPGASVKLSCKASGYTFTSYWMHWVKQRPGQGLEWIGMIHPNSGSTNYNEKFKSKATLTVDKSSSTAYMRLSSLTSEDSAVYYCARGGNMVGGGYWGQGTTLTVSS
VL: QIVLTQSPALMSASPGEKVTMTCSASSSVSYMYWYQQKPRSSPKPWIYLTTNLASGVPARFSGSGSGTSYSLTISSMEAEDAATYYCQQWSSNPFTFGSGTKLEIR
B3: Eph099B-233.152: EphA2 monoclonal antibody; hybridoma ATCC PTA-5194; VL SEQ ID NO:17, VH SEQ ID NO:21 (antibody, listed as Homo sapiens, V domains shown)
VH: EVKLVESGGGLVQPGGSLSLSCAASGFTFTDYSMNWVRQPPGKALEWLGFIRNKANDYTTEYSASVKGRFTISRDNSQSILYLQMNALRAEDSATYYCVRYPRYHAMDSWGQGTSVTVSS
VL: DIVLTQSPATLSVTPGDSVNLSCRASQSISNNLHWYQQKSHESPRLLIKYVFQSISGIPSRFSGSGSGTDFTLSINSVETEDFGMYFCQQSNSWPLTFGAGTKLELK

Experiments:
[1] = system: MDA-MB-231 breast cancer cells implanted subcutaneously; assay: Tumor growth and survival in vivo, MDA-MB-231 implanted subcutaneously; parameters: species or system athymic mice; conditions: for Growth of MDA-MB-231 cells implanted subcutaneously: 6mg/kg intraperitoneally twice a week for 3 weeks, versus PBS or 1A7
Method: MDA-MB-231 cells were implanted subcutaneously into athymic mice. After the tumors had grown to an average volume of 100 mm^3, mice were administered 6 mg/ml Eph099B-233.152 or PBS control intraperitoneally twice a week for 3 weeks. (A) Tumor Growth. Tumor growth was assessed and expressed as a ratio of the tumor volume divided by initial tumor volume (100 mm^3). Control mice are indicated by circles and Eph099B-233.152-treated mice are indicated by squares. Arrows indicate time of Eph099B-233.152 or PBS administration. (B) Survival. Tumor growth was allowed to proceed until tumor volume reached 1000 mm^3. Survival of the mice was assessed by scoring the percent of mice living each day post treatment. Control mice are indicated by grey and Eph099B-233.152-treated mice are indicated by black.
FIGS. 7A-7D: The EphA2 antibodies, EA2, Eph099B-208.261, and Eph099B-233.152, inhibit tumor cell growth in vivo. MDA-MB-231 breast cancer cells were implanted (A) orthotopically or (B) subcutaneously into athymic mice. (C) A549 lung cancer cells were implanted subcutaneously into athymic mice. After the tumors had grown to an average volume of 100 mm^3, mice were administered 6 mg/kg of the indicated antibody or negative control (PBS or 1A7 antibody) intraperitoneally twice a week for 3 weeks. Tumor growth was assessed and expressed as a ratio of the tumor volume divided by initial tumor volume (100 mm^3). (D) MDA-MB-231 breast cancer cells were implanted subcutaneously into athymic mice. After the tumors had grown to an average volume of 100 mm^3, mice were administered 6 mg/kg of the indicated antibody or negative control intraperitoneally twice a week for 3 weeks. Total tumor volume was determined after sacrifice. Negative control is black, EA2 is white, Eph099B-208.261 is dark grey, and Eph099B-233.152 is light grey.
The ability of the antibodies of the invention to inhibit tumor cancer growth in vivo was assayed. Eph099B-233.152 can inhibit tumor cell growth in vivo and extend survival time of tumor-bearing mice. Briefly, 5×10^6 MDA-MB-231 breast cancer cells were implanted subcutaneously into athymic mice. After the tumors had grown to an average volume of 100mm^3, mice were administered 6mg/ml Eph099B-233.152 or PBS control intraperitoneally twice a week for 3 weeks. Tumor growth was assessed and expressed as a ratio of the tumor volume divided by initial tumor volume (100 mm^3). […] Tumor growth was allowed to proceed until tumor volume reached 1000 mm^3. Survival of the mice was assessed by scoring the percent of mice living each day post treatment. […] By day 36, all of the mice in the control group had died in contrast with only 70% of the mice admixture Eph099B-233.152.
5×10^6MDA-MB-231 breast cancer cells were implanted orthotopically or subcutaneously and 5×10^6 A549 lung cancer cells were implanted subcutaneously into athymic mice. After the tumors had grown to an average volume of 100 mm^3, mice were administered 6mg/kg of an EphA2 agonistic antibody or negative control (PBS or 1A7 antibody) intraperitoneally twice a week for 3 weeks. Animals were generally sacrificed at least two weeks after the last treatment or when tumors exceeded 2000 mm^3. Tumor growth was assessed and expressed either as a ratio of the tumor volume divided by initial tumor volume (100 mm^3) or as total tumor volume. Growth of MDA-MB-231 cells implanted orthotopically was inhibited by EA2 (FIG. 7A). Growth of MDA-MB-231 cells implanted subcutaneously was inhibited by EA2, Eph099B-208.261, and Eph099B-233.152 (FIG. 7B, D). Growth of A549 cells implanted subcutaneously was inhibited by EA2, or Eph099B-208.261 (FIG. 7C).

EphA2 = EphA2 degradation / protein level in MDA-MB-231 cells (western blot); assay type: cell-based; conditions: MDA-MB-231 monolayers, single dose 5 μg/ml, 37° C.
Method: Monolayers of MDA-MB-231 cells were incubated in the presence of a single dose of 5 μg/ml (A, C) Eph099B-208.261 or (B, D) EA2 for the indicated time at 37° C. Cell lysates were then resolved by SDS-PAGE and subjected to western blot analysis with an EphA2-specific antibody (A, B). The membranes were stripped and re-probed with a β-catenin-specific antibody as a loading control (C, D).
Monolayers of MDA-MB-231 cells were incubated in the presence of a single dose of 5 μg/ml Eph099B-233.152 at 37° C. Cell lysates were then immunoprecipitated with D7 (an EphA2-specific antibody), resolved by SDS-PAGE and subjected to western blot analysis with (A) a phosphotyrosine-specific antibody or (B) an EphA2-specific antibody.
Monolayers of MDA-MB-231 cells were incubated in the presence of EphA2 agonistic antibodies at 37° C. Cell lysates were then resolved by SDS-PAGE and subjected to western blot analysis with an EphA2-specific antibody (D7). […] Some membranes were stripped and re-probed with a β-catenin-specific antibody as a loading control (FIGS. 3C-3D). […] Decreased EphA2 expression is due, in part, to deceased mRNA expression levels in response to EphA2 protein degradation caused by agonistic antibody binding (data not shown).
Western blot analyses and immunoprecipitations were performed as described previously (Zantek et al., 1999, Cell Growth Diff. 10:629-38, which is incorporated by reference in its entirety). Briefly, detergent extracts of cell monolayers were extracted in Tris-buffered saline containing 1% Triton X-100 (Sigma, St. Louis, Mo.). After measuring protein concentrations (BioRad, Hercules, Calif.), 1.5 mg of cell lysate was immunoprecipitated, resolved by SDS-PAGE and transferred to nitrocellulose (PROTRAN™, Schleicher and Schuell, Keene, N.H.). Antibody binding was detected by enhanced chemiluminescence (Pierce, Rockford, Ill.) and autoradiography (Kodak X-OMAT; Rochester, N.Y.).

Sequence of EphA2 (P29317 24-976): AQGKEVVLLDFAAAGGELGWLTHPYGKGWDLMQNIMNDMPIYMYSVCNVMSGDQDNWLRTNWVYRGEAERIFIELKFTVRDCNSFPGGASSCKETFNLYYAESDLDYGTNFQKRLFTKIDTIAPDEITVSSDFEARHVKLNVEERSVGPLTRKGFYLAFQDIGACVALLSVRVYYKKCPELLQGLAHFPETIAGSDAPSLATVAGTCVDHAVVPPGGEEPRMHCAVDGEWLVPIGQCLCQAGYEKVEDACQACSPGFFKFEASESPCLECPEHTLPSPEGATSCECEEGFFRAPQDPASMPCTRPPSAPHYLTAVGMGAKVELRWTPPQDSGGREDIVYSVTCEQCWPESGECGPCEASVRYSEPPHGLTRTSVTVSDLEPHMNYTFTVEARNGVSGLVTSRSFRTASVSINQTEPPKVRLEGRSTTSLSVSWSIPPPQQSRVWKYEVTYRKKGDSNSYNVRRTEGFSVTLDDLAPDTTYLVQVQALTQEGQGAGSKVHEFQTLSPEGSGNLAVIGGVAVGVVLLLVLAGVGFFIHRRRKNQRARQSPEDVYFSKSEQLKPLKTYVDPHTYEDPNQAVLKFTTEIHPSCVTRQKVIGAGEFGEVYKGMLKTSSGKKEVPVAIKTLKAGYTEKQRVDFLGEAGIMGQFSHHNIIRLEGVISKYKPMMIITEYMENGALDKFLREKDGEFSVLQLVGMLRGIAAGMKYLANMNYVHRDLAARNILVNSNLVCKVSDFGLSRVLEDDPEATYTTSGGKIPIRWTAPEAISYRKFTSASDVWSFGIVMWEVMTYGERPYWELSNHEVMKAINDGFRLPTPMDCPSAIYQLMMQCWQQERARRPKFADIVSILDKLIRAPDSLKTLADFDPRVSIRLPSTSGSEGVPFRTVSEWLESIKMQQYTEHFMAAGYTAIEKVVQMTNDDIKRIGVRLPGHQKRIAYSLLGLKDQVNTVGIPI

Molecule | Growth of MDA-MB-231 cells implanted subcutaneously [1] | EphA2 protein level (EphA2) | Mice that had died by day 36 ([1]; 6mg/ml intraperitoneally twice a week for 3 weeks, all control mice had died) [%] | Survival of the mice (percent of mice living each day post treatment) ([1]; 6mg/ml intraperitoneally twice a week for 3 weeks, versus PBS) | Tumor growth (tumor volume divided by initial tumor volume) ([1]; 6mg/ml intraperitoneally twice a week for 3 weeks, versus PBS, after 30 days)
B1 | inhibited | decreased EphA2 protein level | – | – | –
B2 | inhibited | decreased EphA2 protein level | – | – | –
B3 | inhibited | decreased EphA2 protein level; also recorded: EphA2 degradation | 70 | A greater percentage of mice survived at each time point examined | smaller tumors than mice administered PBS; also recorded: inhibits tumor cell growth in vivo
